Substitutions are numbered along the chain they refer to. “And” between values parts separate entries of the source, which are not always exact repeats. Equal entries are not always repeated.
B1: ABT2-108/ABT1-141-25 hu IgG1/K wt (bispecific antibody, V domains shown)
VH: EVQLLESGGGLVQPGGSLRLSCAASGFTFAEYTMMWVRQAPGKGLEWVSRIGQDGKNTYYADSVKGRFTISRDNSKNTLYLQMNSLRAEDTAVYYCAKYTGRVGVHHLFDYWGQGTLVTSS
VL: DIQMTQSPSSLSASVGDRVTITCRASQWIQKQLAWYQQKPGKAPKLLIYSSSYLQSGVPSRFSGSGSGTDFTLTISSLQPEDFATYYCQQHLRVPMTFGQGTKVEIKR
B2: ABT2-65-17/ABT1-122-511 hu IgG1/K wt (bispecific antibody, V domains shown)
VH: EVQLLESGGGLVQPGGSLRLSCVASGFTFEDYQMGWVRQAPGKGLEWVSSISAMGNRTYYADSVKGRFTISRDDSKNTLYLQMNSLRAEDTAVYYCAQNLVRLGRSRWMFDYWGQGTLVTVSS
VL: DIQMTQSPSSLSASVGDRVTITCRASQPIWTELNWYQQKPGKAPKLLIYGSSSLQRGVPSRFSGSGSGTDFTLTISSLQPEDFATYYCKQFAYFPATFGQGTKVEIKR
B3: ABT2-108-620x/ABT1-122-513 huIgG1/K w (bispecific antibody, V domains shown)
VH: EVQLLESGGGLVQPGGSLRLSCAASGFTFAEESWMWVRQAPGKGLEWVSRIGQDGKNTYYREDVKGRFTISRDNSKNTLYLQMNSLRAEDTAVYYCAKYTGRIMGHHLFDYWGQGTLVTVSS
VL: B2 VL with S52G, L54R
B4: ABT2-10 (other)
VH: EVQLLESGGGLVQPGGSLRLSCTASGFTFNRYNMAWARQAPGKGLEWVSEIDLKGSQTYYADSVKGRFTISRDNSKNTLYLQMNSLRAEDTAVYYCAKVSISAYHMFDYWGQGTLVTVSS
B5: ABT2-35 (other)
VH: EVQLLESGGGLVQPGGSLRLSCAASGFTFGEYDMAWVRQAPGKGLEWVSVIYAWGTSTYYADSVKGRFTISRDNSKNTLYLQMNSLRAEDTAVYYCAKMGGGLVSLPQSKFDYWGQGTLVTVSS
B6: ABT2-39 (other)
VH: EVQLLESGGGLVQPGGSLRLSCAASGFTFRAYDMGWVRQAPGKGLEWVSVIYAWGTSTYYADSVKGRFTISRDNSKNTLYLQMNSLRAEDTAVYYCAKIDRDASLPTGEGFDYWGQGTLVTVSS
B7: ABT2-6 (other)
VL: DIQMTQSPSSLSASVGDRVTITCRASQSIGLLLTWYQQKPGKAPKLLIYMASQLQSGVPSRFSGSGSGTDFTLTISSLQPEDFATYYCQQWHRPPSTFGQGTKVEIKR
B8: ABT2-7 (other)
VL: B7 VL with G30K, L31S, L32G, T34N
B9: ABT2-8 (other)
VL: B7 VL with G30K, L31S, L32M, T34A, Q53N, W91T, H92I, R93V, P94K
B10: ABT2-11 (other)
VH: EVQLLESGGGLVQPGGSLRLSCAASGFTFDNYSMTWVRQAPGKGLEWVSAISGSGGSTYYADSVKGRFTISRDNSKNTLYLQMNSLRAEDTAVYYCAKCIDRLPCLFDYWGQGTLVTVSS
B11: ABT2-43 (other)
VL: DIQMTQSPSSLSASVGDRVTITCRASQNIDTYLTWYQQKPGKAPRLLIYGASTLQSGVPSRFSGSGSGTDFTLTISSLQPEDFATYYCQQRAYYPTTFGQGTKVEIKR
B12: ABT2-42 (other)
VL: DIQMTQSPSSLSASVGDRVTITCRASQYIEKWLTWYQQKPGKAPTLLIYRGSLLQSGVPSRFSGSGSGTDFTLTISSLQPEDFATYYCQQTEYWPFTFGQGTKVEIKR
B13: ABT2-46 (other)
VL: B12 VL with Y28S, E30I, K31E, T34S, T45K, G51T, L53V, T91N, Y93F
B14: ABT2-108 (other)
VH: B1 VH
B15: ABT2-65-137 (other)
VH: B2 VH with V23A, Q98E, L103T, G104A, R105K, S106R
notes: VH dAb
B16: ABT2-65-158 (other)
VH: B2 VH with V23A, R102K, L103W, G104K, S106D, R107F
notes: VH dAb
B17: ABT2-65-155 (other)
VH: B2 VH with V23A, R102L, L103V, G104Q, S106R, R107K
notes: VH dAb
B18: ABT2-65-173 (other)
VH: B2 VH with V23A, L103F, G104R, R105A, S106K, R107E
notes: VH dAb
B19: ABT2-65-132 (other)
VH: B2 VH with V23A, Q98E, G104A, R105S, S106R
notes: VH dAb
B20: ABT2-65-130 (other)
VH: B2 VH with G55V
notes: VH dAb
B21: ABT2-65-127 (other)
VH: B2 VH with S49T
notes: VH dAb
B22: ABT2-65-159 (other)
VH: B2 VH with V23A, Q98E, L103V, G104S, R105K, S106A
notes: VH dAb
B23: ABT2-65-146 (other)
VH: B2 VH with V23A, Q98E, L103T, G104M, R105K, S106R, R107K
notes: VH dAb
B24: ABT2-65-135 (other)
VH: B2 VH with V23A, Q98E, L103I, G104K, R105K, S106M, R107K
notes: VH dAb
B25: ABT2-65-152 (other)
VH: B2 VH with V23A, Q98E, L103W, G104K, R105S, R107A
notes: VH dAb
B26: ABT2-65-169 (other)
VH: B2 VH with V23A, Q98E, R102N, L103W, G104R, S106G, R107S
notes: VH dAb
B27: ABT2-65-174 (other)
VH: B2 VH with V23A, L103F, G104K, R105K, S106T, R107Q
notes: VH dAb
B28: ABT2-65-143 (other)
VH: B2 VH with V23A, Q98E, G104Q, S106D
notes: VH dAb
B29: ABT2-65-129 (other)
VH: B2 VH with S50T, I51V, V64M
notes: VH dAb
B30: ABT2-65-131 (other)
VH: B2 VH with G15R, A53T, Y95H
notes: VH dAb
B31: ABT2-65-171 (other)
VH: B2 VH with V23A, G104N, R107Q
notes: VH dAb
B32: ABT2-65-144 (other)
VH: B2 VH with V23A, Q98E, L103I, G104S, R105K, S106K, R107Q
notes: VH dAb
B33: ABT2-65-133 (other)
VH: B2 VH with V23A, Q98E, R102H, L103W, G104K, S106G, R107G
notes: VH dAb
B34: ABT2-65-172 (other)
VH: B2 VH with V23A, Q98E, L103W, G104K, R105K, S106G, R107S
notes: VH dAb
B35: ABT2-65-176 (other)
VH: B2 VH with V23A, N56S, Q98E, R102K, L103V, G104A, S106G
notes: VH dAb
B36: ABT2-65-168 (other)
VH: B2 VH with V23A, L103W, G104K, R105L, S106E, R107S
notes: VH dAb
B37: ABT2-65-151 (other)
VH: B2 VH with V23A, Q98E, L103W, G104R, R105K, S106H, R107A
notes: VH dAb
B38: ABT2-65-149 (other)
VH: B2 VH with V23A, Q98E, L103V, G104D, S106R
notes: VH dAb
B39: ABT2-65-139 (other)
VH: B2 VH with V23A, L103V, G104R, R105V, S106R
notes: VH dAb
B40: ABT2-65-175 (other)
VH: B2 VH with V23A, Q98E, L103I, G104A, R105G, S106D
notes: VH dAb
B41: ABT2-65-141 (other)
VH: B2 VH with V23A, Q98E, L103I, G104K, R105Q, S106T, R107K
notes: VH dAb
B42: ABT2-65-177 (other)
VH: B2 VH with V23A, L103F, G104K, R105V, S106L, R107Q
notes: VH dAb
B43: ABT2-65-170 (other)
VH: B2 VH with V23A, Q98E, L103V, G104L, R105L, S106N, R107K
notes: VH dAb
B44: ABT2-65-145 (other)
VH: B2 VH with V23A, Q98E, L103I, G104Q, R105K, S106V, R107K
notes: VH dAb
B45: ABT2-65-167 (other)
VH: B2 VH with V23A, L103W, G104K, R105K, S106N, R107E
notes: VH dAb
B46: ABT2-65-148 (other)
VH: B2 VH with V23A, R105S, S106K
notes: VH dAb
B47: ABT2-65-156 (other)
VH: B2 VH with V23A, L103I, S106N, R107K
notes: VH dAb
B48: ABT2-65-138 (other)
VH: B2 VH with V23A, Q98E, L103V, G104T, R105A, S106R, R107K
notes: VH dAb
B49: ABT2-65-10 (other)
VH: VQLSESGGGLVQPGGSLRLSCAASGFTFTEYNMGWVRQAPGKGLEWVSSISAMGNRTYYADSVKGRFTISRDDSKNTLYLQMNSLRAEDTAVYYCANNLVRTQSKMWMFDYWGQGTLVTVSS
notes: VH dAb

Molecular target: human IL-1β (human, UniProt P01584 117-269)
Experiment: cell-based or functional assay

Row | IL-1β IC50 | Binder
1 | 150 nM | B1
2 | 0.1 nM and 0.16 nM | B2
3 | 0.01 nM and 0.009 nM | B3

Molecular target: T1, human IL-1β (human, UniProt P01584 117-269)
Experiment: cell-based or functional assay

Row | ND50 [µM] | Binder
4 | 6 | B4
5 | > 10 | B5
6 | > 10 | B6
7 | > 20 | B7
8 | > 20 | B8
9 | > 20 | B9
10 | > 10 | B10
11 | > 10 | B11

Molecular target: T1, human IL-1β
Experiment: IC50 column of Table 63; receptor binding assay presumed

Row | IC50 [nM] | Binder
12 | 770 | B12
13 | 390 | B13
14 | 70 | B14
15 | 5 | B15
16 | 5 | B16
17 | 5 | B17
18 | 30 | B18
19 | 5 | B19
20 | 4.3 | B20
21 | 5.5 | B21
22 | 5 | B22
23 | 6 | B23
24 | 5 | B24
25 | 5 | B25
26 | 9 | B26
27 | 10 | B27
28 | 5 | B28
29 | 3.4 | B29
30 | 13.2 | B30

Row | IC50 [nM] | Binder
31 | 7.5 | B31
32 | 6 | B32
33 | 30 | B33
34 | 6 | B34
35 | 5 | B35
36 | 30 | B36
37 | 6 | B37
38 | 4 | B38
39 | 4 | B39
40 | 10 | B40
41 | 5 | B41
42 | 20 | B42
43 | 10 | B43
44 | 5 | B44
45 | 30 | B45
46 | 4 | B46
47 | 5 | B47
48 | 5 | B48
49 | 20 | B49
